Measurements from US20240269276A1 (HARBOUR BIOMED SHANGHAI, published 2024).

Assays:
[1] = target: T1, cynomolgus monkey PD-L1 on CHO-K1 cells overexpressing cynomolgus monkey PD-L1 (cynomolgus monkey, UniProt G7PSE7 19-290); experiment: flow cytometry on CHO-K1/cynoPD-L1 cells
T1 construct: also called CHO-K1/cynoPD-L1; GenScript M00573
Description: (§1) In the example, in order to study the in vitro binding activity of the PD-L1 antigen-binding protein to human/cynomolgus monkey PD-L1, cell-level binding experiments were performed using CHO-K1 cell strains overexpressing human PD-L1 (CHO-K1/hPD-L1, GenScript, M00543) or CHO-K1 cell strains overexpressing cynomolgus monkey PD-L1 (CHO-K1/cynoPD-L1, GenScript, M00573). Briefly, the PD-L1 cells were digested and resuspended in an F-12K complete medium, and the cell density was adjusted to 1×10⁶ cells/mL. The cells were seeded in a 96-well V-bottom plate (Corning, 3894) at 100 μL/well, followed by the addition of the test antigen-binding proteins serially diluted 5-fold with concentrations that were twice the final concentrations at 100 μL/well. The mixtures were well mixed. The highest final concentration of the antigen-binding proteins was 100 nM. A total of 8 concentrations were set. An isotype antibody hIgG1 iso was used as a control. The cells were incubated away from light at 4° C. for 1 h. Thereafter, the cells in each well were rinsed twice with 100 μL of pre-cooled PBS, and centrifuged at 500 g at 4° C. for 5 min, and then the supernatant was discarded. Then 100 μL of a fluorescent secondary antibody (goat anti-human IgG (H+L) secondary antibody, Alexa Fluor 488 conjugate, Invitrogen, A11013, diluted at the ratio of 1:1000) was added to each well. The plate was incubated away from light at 4° C. for 30 min. The cells in each well were then rinsed twice with 200 μL of pre-cooled PBS and centrifuged at 500 g at 4° C. for 5 min, and then the supernatant was discarded. Finally, a pre-cooled PBS was added at 200 μL/well to resuspend the cells. Fluorescence signal values were read using a BD FACS CANTOII. Fluorescence signal values were read using a flow cytometer BD FACS CANTOII or FACS ACEA, and the data were processed and analyzed using FlowJo v10 (FlowJo, LLC) software. The data were processed and analyzed by plotting using GraphPad Prism 8 software, and binding curves, EC50 values and other parameters were acquired through four-parameter nonlinear fitting.

[2] = target: T2, human PD-L1 on CHO-K1 cells overexpressing human PD-L1 (human, UniProt Q9NZQ7 19-290); experiment: flow cytometry on CHO-K1 cells overexpressing human PD-L1 (CHO-K1/hPD-L1) [continued) E]
T2 construct: whole, on cells; also called CHO-K1/hPD-L1; CHO-K1-hPD-L1
Description: as §1

[3] = target: T3, human PD-L1 protein with histidine tag (ACROBiosystems #PD-1-H5258) (human, UniProt Q9NZQ7 19-238); experiment: BLI (Octet Red96e); His-tagged human PD-L1 captured on HIS1K sensor, antibody at 60 nM; 1:1 fit
T3 construct: Bought protein; also called His PD-L1; human PD-L1 proteins; not shown: histidine tag
Description: In this example, affinity determination was performed on the affinity-matured mutants of PR002082 using an Octet Red96e instrument. […] The binding kinetics between the antigen and the antibody was analyzed by the biolayer interferometry (BLI) technique using an Octet molecular interaction analyzer (ForteBio, model: Octet Red96e).
When the affinity of the antigen for the antibody was determined, the rotation speed of the sensor was set at 1000 rpm/min. The 2 HIS1K sensors placed in a column were first equilibrated for 10 min in test buffer, then His PD-L1 was captured with the HIS1K sensor at a capture height of 0.9-1.1 nm, then the HIS1K sensor was equilibrated for 2 min in the test buffer, then the HIS1K sensor was bound to the antigen-binding protein (60 nM and 0 nM) for 3 min, and finally the mixture was dissociated for 15 min. The HIS1K sensor was immersed in a 10 mM glycine solution (pH 1.5) for regeneration to elute the proteins bound to the sensor.
When data analysis was performed using Octet Data Analysis software (Fortebio, version 11.0), the reference signals were subtracted by a single reference mode (reference well), the data were fitted by a “1:1 Local/full fitting” method, and the kinetic parameters of the binding of the antigen to the antibody were calculated to obtain Kₒₙ (1/Ms) values, Kdis (1/s) values and KD (M) values.

[4] = target: T2, human PD-L1 on CHO-K1 cells …; experiment: flow cytometry on CHO-K1 cells overexpressing human PD-L1 (CHO-K1/hPD-L1) [continued) F]
Description: as §1

T1 sequence (G7PSE7 entry or part of it limits assumed): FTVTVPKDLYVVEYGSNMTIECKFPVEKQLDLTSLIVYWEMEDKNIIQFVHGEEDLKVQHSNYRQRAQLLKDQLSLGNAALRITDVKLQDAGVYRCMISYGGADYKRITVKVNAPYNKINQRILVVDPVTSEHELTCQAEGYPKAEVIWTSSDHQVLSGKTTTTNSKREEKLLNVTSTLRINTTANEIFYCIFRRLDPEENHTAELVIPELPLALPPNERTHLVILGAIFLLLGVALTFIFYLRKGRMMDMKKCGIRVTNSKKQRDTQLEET
T2 sequence (Q9NZQ7 19-290): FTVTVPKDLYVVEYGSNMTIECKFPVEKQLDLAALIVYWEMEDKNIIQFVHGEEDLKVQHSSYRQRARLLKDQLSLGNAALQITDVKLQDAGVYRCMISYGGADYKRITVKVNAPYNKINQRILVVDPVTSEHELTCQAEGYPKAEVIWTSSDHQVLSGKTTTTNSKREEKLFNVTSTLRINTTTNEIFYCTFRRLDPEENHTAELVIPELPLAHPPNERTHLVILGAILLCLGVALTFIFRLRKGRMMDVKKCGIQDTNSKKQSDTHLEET
T3 sequence (Q9NZQ7 19-238 limits assumed): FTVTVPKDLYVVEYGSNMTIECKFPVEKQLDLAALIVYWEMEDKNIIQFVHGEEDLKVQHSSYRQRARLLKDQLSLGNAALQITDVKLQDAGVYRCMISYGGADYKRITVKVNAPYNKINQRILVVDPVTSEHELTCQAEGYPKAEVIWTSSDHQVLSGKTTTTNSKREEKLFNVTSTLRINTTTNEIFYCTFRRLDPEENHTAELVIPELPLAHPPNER

Row | binding result [1] | EC50 [2] [nM] | Maximum MFI [2] [MFI] | Kd [3] [nM] | koff [3] [s⁻¹] | kon [3] [M⁻¹ s⁻¹] | EC50 [4] [nM] | Maximum MFI [4] [MFI] | Binder
1 | binds | 1.14 | 388000 | 1.85 | 0.000468 | 253000 | – | – | PR005867 (antibody, human IgG1, V domains shown, The HC entry is used) VH: QVQLVESGGGVVQPGMSLRLSCAASGFTFSSYGMYWVRQAPGKGQEWVAIIWYDGTKKHYADSVKGRFTISRDNSKNTLYLEMNSLRVEDTAVYYCAKNRAIFGVIPDDSDIRGQGTMVTVSS
2 | binds | – | – | 1.18 | 0.000219 | 185000 | 1.01 | 410000 | PR006247 (antibody, human IgG1, V domains shown, The HC entry is used) VH: QVQLVESGGGVVQPGMSLRLSCAASGFDFSSYGMYWVRQAPGKGQEWVASIRYTGTEKHYADSVKGRFTISRDNSKNTLYLEMNSLRVEDTAVYYCAKNRALFGVIPDASDIRGQGTMVTVSS
3 | binds | 1.13 | 393000 | 1.09 | 0.000262 | 241000 | – | – | PR005869 (antibody, human IgG1, V domains shown, The HC entry is used) VH: QVQLVESGGGVVQPGMSLRLSCAASGFTFSSYGMYWVRQAPGKGQEWVAIIWYDGTKKHYADSVKGRFTISRDNSKNTLYLEMNSLRVEDTAVYYCAKNRALFGVIPDDSDIRGQGTMVTVSS
4 | binds | 1.06 | 393000 | 1.92 | 0.000386 | 201000 | – | – | PR005868 (antibody, human IgG1, V domains shown, The HC entry is used) VH: QVQLVESGGGVVQPGMSLRLSCAASGFTFSSYGMYWVRQAPGKGQEWVAIIWYDGTKKHYADSVKGRFTISRDNSKNTLYLEMNSLRVEDTAVYYCAKNRALFGVIPDASDIRGQGTMVTVSS
5 | binds | – | – | 1.09 | 0.000162 | 149000 | 0.964 | 405000 | PR006245 (antibody, human IgG1, V domains shown, The HC entry is used) VH: QVQLVESGGGVVQPGMSLRLSCAASGFDFSSYGMYWVRQAPGKGQEWVASIRYTGTEKHYADSVKGRFTISRDNSKNTLYLEMNSLRVEDTAVYYCAKNRAIFGVVPDASDIRGQGTMVTVSS
